# Measured values published in the nanobody polyreactivity screen of Harvey et al. (2022).
# Assay: yeast display, Sf9 membrane polyspecificity reagent, FACS + sequencing; frameworks hold sequencing errors
# In short: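 Galactose induction of a Saccharomyces cerevisiae BJ5465 synthetic nanobody display library ran 36–48 hours. The cells were then stained for 1 hour at 4 °C with 10% biotinylated, detergent-solubilized Sf9 membrane reagent, pulled down on streptavidin microbeads and FACS-sorted into low and high (top ~1%) gates on expression and reagent-binding fluorescence. Labels for polyreactivity follow the gate of origin.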
row,Sequence,polyreactivity (PSR sort gate)
1,QVQLVESGGGLVQAGGSLRLSCAASGFILLQYVMGWYRQAPGKERELVAAITSGGSTYYADSVKGRFTISRDNAKYTVYLQMNSLKPEDTAVYYCSTDVADNTFYALYGYDYWGQGTQVTVSS,low polyreactivity
2,QVQLVESGGGLVQAGGSLRLSCAASGFILLYYAMGWYRQAPGKERELVAANSWTGGRTYYADSVKGRFTISRDNAKNTVYLQMTSLKPEDSAVYYCNTDKFFGRKYGYWGQGTQVTVSS,low polyreactivity
3,QVQLVESGGGLVQAGGSLRLSCAASGFILNKNVMGWYRQAPGKERELVAAITGSGGRTYYADSVKGRFSISRDNAKNTVYLQMNSLKPEDTAVYYCAARRPLVRYIMGYWGQGTQVTVSS,high polyreactivity
4,QVQLVESGGGLVQAGGSLRLSCAASGFILPWYVMGWYRQAPGKERELVAAISGTGGSTYYADSVKGRFTISRDNAKNTVYLQMNSLKPEDTAVYYCAAGAFYAGYYWEFYYWGQGTQVTVSS,high polyreactivity
5,QVQLVESGGGLVQAGGSLRLSCAASGFILTDNAKGWNRQAPGKERELVAAINSGGSTYYADSVKGRFTISRDNAKNTVYLQMNSLKPEDTEVYYCAADYSTWLRAYDYWGQGTQVTVSS,low polyreactivity
6,QVQLVESGGGLVQAGGSLRLSCAASGFILTLYAMGWYRQAPGKERELVASISRRGGSTYYADSVKGRFTISRDNAKNTVYLQMNSLKPEDTAVYYCNAQGYRRGYDYWGQGTQVTVSS,high polyreactivity
7,QVQLVESGGGLVQAGGSLRLSCAASGFILYGNTMGWYRHAPGKDRELVAAISWSGGNTRYADSVKGRFTISRDNAKNTVYLQMNSLKQDDTAVYYCAAYSKYVLSIRRDYWGQGTQVTVSS,low polyreactivity
8,QVQLVESGGGLVQAGGSLRLSCAASGFILYSYAMGWYRQAPGKERELVADITGTGGRTYYADSVKGRFTISRDNAKNTVYLQMNSLKPEDTAVYYCNKGPFFVFRTTRYYEYDYWGQGTQVTVSS,low polyreactivity
9,QVQLVESGGGLVQAGGSLRLSCAASGFIMQYNAMGRYIQAPRKERELVAAITRSGVSTHYADSVKGRYTISRDNAKNTVYLQMISLKPEDTAVYYCARTGQSLYSRYYYWGQGTQVTVSS,low polyreactivity
10,QVQLVESGGGLVQAGGSLRLSCAASGFIRTAYAMGWYRQAPGKERELVAAIDWIGGSTYYADSVKGRFTISRDNAKNTVYLQMNSLKPEDTAVYYCAAVRYYWGQGTQVTVSS,low polyreactivity
11,QVQLVESGGGLVQAGGSLRLSCAASGFISAYYAMGWYRQAPGKEMELVAAISWNGGRTFYADSVKGRFTISRDNAKNTVYLQMNSLKPEDTAVYYCAARYNGYANPYYYWGQGTQVTVSS,high polyreactivity
12,QVQLVESGGGLVQAGGSLRLSCAASGFISDYYAMGWDRQAPGKERELVADISSGGSTYYADSVKGRCTISRDNAKNTVYLQMNSLKPEDTAVYYCNAGDYFVRFVYYWDDERYDYWGQGTQVTVSS,low polyreactivity
13,QVQLVESGGGLVQAGGSLRLSCAASGFISGFYGMGWYIQAPGKEREFVAAIDFIDGDTYYADSVKGRFTISRDKAKNTVYLQMNSLKPEDTAVYYCAADGSFCQFDYWGQGTQVTVSS,low polyreactivity
14,QVQLVESGGGLVQAGGSLRLSCAASGFISGFYGMGWYRQAPGKEREFVAAIDFIDGDTYYADSVKGRFTISRDNAKNTVYLQMNSLKPEDTAVYYCAADGSFWQFDYWGQGTQVTVSS,low polyreactivity
15,QVQLVESGGGLVQAGGSLRLSCAASGFISNDNAMGWYRQAPGKERELVATIDISDASTYYADSVKGRFTISRDNAKNTVYLQMNSLKPEDTAVYYCAAESDEWFTWYWYGYWGQGTQVTVSS,low polyreactivity
16,QVQLVESGGGLVQAGGSLRLSCAASGFISPGYAMGWYRQAPGKERELVAAITRDGGTYYADSVKGRFTISRDNAKNTVYLQMNSLKPEDTAVYYCAAEGSFRKFDYWGQGTQVTVSS,low polyreactivity
17,QVQLVESGGGLVQAGGSLRLSCAASGFISPPYAMGWYRQAPGKERELVAAIRSSGGSTYYADSVKGRFTISRDNAKNTVYLQMNSLKPEDTAVYYCNADWIYISSYGWYSYDYWGQGTQVTLSS,high polyreactivity
18,QVQLVESGGGLVQAGGSLRLSCAASGFISPPYAMGWYRQAPGKERELVAAIRSSGGSTYYADSVKGRFTISRDNPKNTVYLQMNSLKPEDTAVYYCNADWIYISSYGWYSYDYWGQGTQVTVSS,high polyreactivity
19,QVQLVESGGGLVQAGGSLRLSCAASGFISPYAMRWYRQAPGKERELVAVITSSGGSTYYADSVKGRFTISRDNAKNTVYLQMNSLKPEDTAVYYCAARFYFRWYYYGSYANYWGQGTQVTVSS,high polyreactivity
20,QVQLVESGGGLVQAGGSLRLSCAASGFISRNAMGWYRQAPGKERELVAAITRGGSTNYADSVKGRFTISRDNAKNTVYLQMNRLKPEDTAVYYCNKQRQGNSRSYYQTYYGMYYWGQGTQVTVSS,high polyreactivity
21,QVQLVESGGGLVQAGGSLRLSCAASGFISSRYAMGWYRQAPGKERELVASINWSGGSTYYADSVKGRFTISRDNAKNTVYLQMNSLKPEDTAVYYCNRVLDPTNKYYYWGQGTQVTVSS,high polyreactivity
